Legend:
[1] = target: α-CAs found in mammals; conditions: inhibitor not named; cited from earlier work
[2] = cited from earlier work
[3] = tested on: Arabidopsis; assay: Growth phenotypes of transgenic Arabidopsis; type: in vivo
Excerpt: (§1) Previously, reconstitution of a functional inorganic CCM in C3 plants to suppress photorespiration and enhance photosynthesis was proposed. In WO 2012/125737, it was hypothesized that expression of a minimum of three algal CCM proteins would be sufficient to elevate internal plastid CO2 concentrations high enough to suppress photorespiration. These three algal CCM genes included the Chlamydomonas plasma membrane-localized and ATP-dependent bicarbonate transporter, HLA3; the chloroplast envelope localized bicarbonate anion transporter, LCIA; and a chloroplast stromal-localized carbonic anhydrase (HCA-II) to accelerate conversion of bicarbonate into CO2. […] To test this hypothesis, we generated multiple independent transgenic Arabidopsis and Camelina plants expressing each CCM gene as a single gene construct, as well as a stacked 3-gene construct. The expression of each gene was controlled by the light-regulated Cab1 gene promoter.
Finally, we also grew transgenics on ammonium with sucrose which would presumably provide additional ATP via respiration. We hypothesized that growth on nitrate or ammonium with sucrose would provide additional ATP that could potentially drive HLA3 activity.

[4] = tested on: Camelina; assay: Growth phenotypes and seed recovery of transgenic Camelina; type: in vivo
Excerpt: as §1

Molecule	Ki [1]	Km [2]	also measured
hCAI: human α-carbonic anhydrase isoenzyme I	250 nM	4 mM	–
hCAXIII: human α-carbonic anhydrase isoenzyme XIII	16 nM	13.8 mM	–
hCAXV: α-carbonic anhydrase isoenzyme XV (protein, UniProt Q99N23 19-324, looked up) Carbonic anhydrase 15: VDSSGTWCYDSQDPKCGPAHWKELAPACGGPTQSPINIDLRLVQRDYTLKPFIFQGYDSAPQDPWVLENDGHTVLLRVNSCQQNCPAIRGAGLPSPEYRLLQLHFHWGSPGHQGSEHSLDEKHGSMEMHMVHMNTKYQSMEDARSQPDGFAILAVLLVEEDRDNTNFSAIVSGLKNLSSPGVAVNLTSTFALASLLPSALRLLRYYRYSGSLTTPGCEPAVLWTVFENTVPIGHAQVVQFQAVLQTGPPGLHPRPLTSNFRPQQPLGGRRISASPEASVRSSVSTLPCLHLALVGLGVGLRLWQGP	72 nM	14.2 mM	–
hCAXIV: human α-carbonic anhydrase isoenzyme XIV (protein, UniProt Q9ULX7 16-337, looked up) Carbonic anhydrase 14: ADGGQHWTYEGPHGQDHWPASYPECGNNAQSPIDIQTDSVTFDPDLPALQPHGYDQPGTEPLDLHNNGHTVQLSLPSTLYLGGLPRKYVAAQLHLHWGQKGSPGGSEHQINSEATFAELHIVHYDSDSYDSLSEAAERPQGLAVLGILIEVGETKNIAYEHILSHLHEVRHKDQKTSVPPFNLRELLPKQLGQYFRYNGSLTTPPCYQSVLWTVFYRRSQISMEQLEKLQGTLFSTEEEPSKLLVQNYRALQPLNQRMVFASFIQAGSSYTTGEMLSLGVGILVGCLCLLLAVYFIARKIRKKRLENRKSVVFTSAQATTEA	41 nM	7.9 mM	–
hCAVB: human α-carbonic anhydrase isoenzyme VB (protein, UniProt Q9Y2D0 34-317, looked up) Carbonic anhydrase 5B, …: CSLYTCTYKTRNRALHPLWESVDLVPGGDRQSPINIRWRDSVYDPGLKPLTISYDPATCLHVWNNGYSFLVEFEDSTDKSVIKGGPLEHNYRLKQFHFHWGAIDAWGSEHTVDSKCFPAELHLVHWNAVRFENFEDAALEENGLAVIGVFLKLGKHHKELQKLVDTLPSIKHKDALVEFGSFDPSCLMPTCPDYWTYSGSLTTPPLSESVTWIIKKQPVEVDHDQLEQFRTLLFTSEGEKEKRMVDNFRPLQPLMNRTVRSSFRHDYVLNVQAKPKPATSQATP	54 nM	9.7 mM	–
hCAIV: human α-carbonic anhydrase isoenzyme IV (protein, UniProt P22748 19-284, looked up) Carbonic anhydrase 4: AESHWCYEVQAESSNYPCLVPVKWGGNCQKDRQSPINIVTTKAKVDKKLGRFFFSGYDKKQTWTVQNNGHSVMMLLENKASISGGGLPAPYQAKQLHLHWSDLPYKGSEHSLDGEHFAMEMHIVHEKEKGTSRNVKEAQDPEDEIAVLAFLVEAGTQVNEGFQPLVEALSNIPKPEMSTTMAESSLLDLLPKEEKLRHYFRYLGSLTTPTCDEKVVWTVFREPIQLHREQILAFSQKLYYDKEQTVSMKDNVRPLQQLGQRTVIKS	74 nM	21.5 mM	–
hCAXII: human α-carbonic anhydrase isoenzyme XII (protein, UniProt O43570 25-354, looked up) Carbonic anhydrase 12: APVNGSKWTYFGPDGENSWSKKYPSCGGLLQSPIDLHSDILQYDASLTPLEFQGYNLSANKQFLLTNNGHSVKLNLPSDMHIQGLQSRYSATQLHLHWGNPNDPHGSEHTVSGQHFAAELHIVHYNSDLYPDASTASNKSEGLAVLAVLIEMGSFNPSYDKIFSHLQHVKYKGQEAFVPGFNIEELLPERTAEYYRYRGSLTTPPCNPTVLWTVFRNPVQISQEQLLALETALYCTHMDDPSPREMINNFRQVQKFDERLVYTSFSQVQVCTAAGLSLGIILSLALAGILGICIVVVVSIWLFRRKSIKKGDNKGVIYKPATKMETEAHA	5.7 nM	12 mM	–
hCAVII: human α-carbonic anhydrase isoenzyme VII (protein, UniProt P43166 1-264, looked up) Carbonic anhydrase 7: MTGHHGWGYGQDDGPSHWHKLYPIAQGDRQSPINIISSQAVYSPSLQPLELSYEACMSLSITNNGHSVQVDFNDSDDRTVVTGGPLEGPYRLKQFHFHWGKKHDVGSEHTVDGKSFPSELHLVHWNAKKYSTFGEAASAPDGLAVVGVFLETGDEHPSMNRLTDALYMVRFKGTKAQFSCFNPKCLLPASRHYWTYPGSLTTPPLSESVTWIVLREPICISERQMGKFRSLLFTSEDDERIHMVNNFRPPQPLKGRVVKASFRA	2.5 nM	11.4 mM	–
HLA3: Chlamydomonas plasma membrane-localized and ATP-dependent bicarbonate transporter, expressed in transgenic plants (protein, listed as Chlamydomonas reinhardtii) MLPGLGVILLVLPMQYYFGYKIVQIKLQNAKHVALRSAIMQEVLPAIKLVKYYAWEQFFENQISKVRREEIRLNFWNCVMKVINVACVFCVPPMTAFVIFTTYEFQRARLVSSVAFTTLSLFNILRFPLVVLPKALRAVSEANASLQRLEAYLLEEVPSGTAAVKTPKNAPPGAVIENGVFHHPSNPNWHLHVPKFEVKPGQVVAVVGRIAAGKSSLVQAILGNMVKEHGSFNVGGRISYVPQNPWLQNLSLRDNVLFGEQFDENKYTDVIESCALTLDLQILSNGDQSKAGIRGVNFSGGQRQRVNLARCAYADADLVLLDNALSAVDHHTAHHIFDKCIKGLFSDKAVVLVTHQIEFMPRCDNVAIMDEGRCLYFGKWNEEAQHLLGKLLPITHLLHAAGSQEAPPAPKKKAEDKAGPQKSQSLQLTLAPTSIGKPTEKPKDVQKLTAYQAALIYTWYGNLFLVGVCFFFFLAAQCSRQISDFWVRWWVNDEYKKFPVKGEQDSAATTFYCLIYLLLVGLFYIFMIFRGATFLWWVLKSSETIRRKALHNVLNAPMGFFLVTPVGDLLLNFTKDQDIMDENLPDAVHFMGIYGLILLATTITVSVTINFFAAFTGALIIMTLIMLSIYLPAATALKKARAVSGGMLVGLVAEVLEGLGVVQAFNKQEYFIEEAARRTNITNSAVFNAEALNLWLAFWCDFIGACLVGVVSAFAVGMAKDLGGATVGLAFSNIIQMLVFYTWVVRFISESISLFNSVEGMAYLADYVPHDGVFYDQRQKDGVAKQIVLPDGNIVPAASKVQVVVDDAALARWPATGNIRFEDVWMQYRLDAPWALKGVTFKINDGEKVGAVGRTGSGKSTTLLALYRMFELGKGRILVDGVDIATLSLKRLRTGLSIIPQEPVMFTGTVRSNLDPFGEFKDDAILWEVLKKVGLEDQAQHAGGLDGQVDGTGGKAWSLGQMQLVCLARAALRAVPILCLDEATAAMDPHTEAIVQQTIKKVFDDRTTITIAHRLDTIIESDKIIVMEQGSLMEYESPSKLLANRDSMFSKLVDKTGPAAAAALRKMAEDFWSTRSAQGRNQ	–	–	growth phenotype relative to WT [3]: reduced growth phenotypes; growth in the presence of ammonium ([3]; ammonium): none of the Arabidopsis HLA3 transgenics (4 independent lines) grew; growth on ammonium with sucrose ([3]; ammonium plus sucrose): rescued; growth on nitrate ([3]; nitrate): survived; growth phenotype / viability relative to WT [4]: no viable seeds were recovered
hCAVI: human α-carbonic anhydrase isoenzyme VI (protein, UniProt P23280 18-308, looked up) Carbonic anhydrase 6: QHVSDWTYSEGALDEAHWPQHYPACGGQRQSPINLQRTKVRYNPSLKGLNMTGYETQAGEFPMVNNGHTVQISLPSTMRMTVADGTVYIAQQMHFHWGGASSEISGSEHTVDGIRHVIEIHIVHYNSKYKSYDIAQDAPDGLAVLAAFVEVKNYPENTYYSNFISHLANIKYPGQRTTLTGLDVQDMLPRNLQHYYTYHGSLTTPPCTENVHWFVLADFVKLSRTQVWKLENSLLDHRNKTIHNDYRRTQPLNHRVVESNFPNQEYTLGSEFQFYLHKIEEILDYLRRALN	11 nM	6.9 mM	–
hCAIII: human α-carbonic anhydrase isoenzyme III (protein, UniProt P07451 2-260, looked up) Carbonic anhydrase 3: AKEWGYASHNGPDHWHELFPNAKGENQSPVELHTKDIRHDPSLQPWSVSYDGGSAKTILNNGKTCRVVFDDTYDRSMLRGGPLPGPYRLRQFHLHWGSSDDHGSEHTVDGVKYAAELHLVHWNPKYNTFKEALKQRDGIAVIGIFLKIGHENGEFQIFLDALDKIKTKGKEAPFTKFDPSCLFPACRDYWTYQGSFTTPPCEECIVWLLLKEPMTVSSDQMAKLRSLLSSAENEPPVPLVSNWRPPQPINNRVVRASFK	200000 nM	33.3 mM	–
hCAVA: human α-carbonic anhydrase isoenzyme VA (protein, UniProt P35218 39-305, looked up) Carbonic anhydrase 5A, …: CAWQTSNNTLHPLWTVPVSVPGGTRQSPINIQWRDSVYDPQLKPLRVSYEAASCLYIWNTGYLFQVEFDDATEASGISGGPLENHYRLKQFHFHWGAVNEGGSEHTVDGHAYPAELHLVHWNSVKYQNYKEAVVGENGLAVIGVFLKLGAHHQTLQRLVDILPEIKHKDARAAMRPFDPSTLLPTCWDYWTYAGSLTTPPLTESVTWIIQKEPVEVAPSQLSAFRTLLFSALGEEEKMMVNNYRPLQPLMNRKVWASFQATNEGTRS	63 nM	10 mM	–

— patent US11459578B2, “Carbon fixation systems in plants and algae” (NMC, INC., priority 2014, dated 2022)
